Test results as given in PMC9482650, “Quantitative fragmentomics allow affinity mapping of interactomes” (Nature Communications, 2022).

Tests used:
Test in all cases: holdup assay
Set-up in all cases: key: below the threshold = too weak to quantify, mostly under pKd 3.1 to 4
TJP2_1, Q9UDY2 = target: TJP2_1, Q9UDY2
NHERF4_4, Q86UT5 = target: NHERF4_4, Q86UT5
SNTG1, Q9NSN8 = target: T1, SNTG1, Q9NSN8
T1 sequence (Q9NSN8 52-150, limits assumed, looked up): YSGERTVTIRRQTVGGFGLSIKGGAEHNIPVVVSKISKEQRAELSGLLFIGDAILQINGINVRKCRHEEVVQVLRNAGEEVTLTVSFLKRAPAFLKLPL

GRIP1_2, Q9Y3R0 = target: T2, GRIP1_2, Q9Y3R0
T2 sequence (Q9Y3R0 145-248, limits assumed, looked up): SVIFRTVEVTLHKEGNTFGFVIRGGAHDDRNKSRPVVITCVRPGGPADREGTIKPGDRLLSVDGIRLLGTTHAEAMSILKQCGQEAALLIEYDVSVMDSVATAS

RAPGEF6, Q8TEU7 = target: T3, RAPGEF6, Q8TEU7
T3 sequence (Q8TEU7 525-625, limits assumed, looked up): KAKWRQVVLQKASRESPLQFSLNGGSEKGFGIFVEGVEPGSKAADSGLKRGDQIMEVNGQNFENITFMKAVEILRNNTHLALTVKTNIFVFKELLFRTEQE

TX1BP3, O14907 = target: T4, TX1BP3, O14907
T4 sequence (O14907 10-122, limits assumed, looked up): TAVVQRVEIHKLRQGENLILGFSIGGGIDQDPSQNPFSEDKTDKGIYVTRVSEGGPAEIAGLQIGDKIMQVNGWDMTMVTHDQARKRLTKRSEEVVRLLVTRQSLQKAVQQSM

NHERF4_1, Q86UT5-2 = target: NHERF4_1, Q86UT5-2
SNTA1, Q13424 = target: T5, SNTA1, Q13424
T5 sequence (Q13424 82-180, limits assumed, looked up): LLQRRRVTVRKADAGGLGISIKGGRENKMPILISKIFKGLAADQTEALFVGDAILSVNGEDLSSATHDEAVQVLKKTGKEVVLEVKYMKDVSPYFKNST

Inadl_10, Q8NI35 = target: Inadl_10, Q8NI35
APBA1_1, Q02410 = target: T6, APBA1_1, Q02410
T6 sequence (Q02410 651-752, limits assumed, looked up): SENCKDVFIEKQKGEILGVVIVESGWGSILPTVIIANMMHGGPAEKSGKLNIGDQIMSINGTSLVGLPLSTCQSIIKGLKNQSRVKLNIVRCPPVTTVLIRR

DLG5_1, Q8TDM6 = target: DLG5_1, Q8TDM6
GRIP2_3, Q9C0E4 = target: GRIP2_3, Q9C0E4
DVL3, Q92997 = target: T7, DVL3, Q92997
T7 sequence (Q92997 244-331, limits assumed, looked up): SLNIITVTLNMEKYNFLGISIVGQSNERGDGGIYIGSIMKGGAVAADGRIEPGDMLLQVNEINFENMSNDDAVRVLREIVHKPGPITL

LIN7C, Q9NUP9 = target: T8, LIN7C, Q9NUP9
T8 sequence (Q9NUP9 88-185, limits assumed, looked up): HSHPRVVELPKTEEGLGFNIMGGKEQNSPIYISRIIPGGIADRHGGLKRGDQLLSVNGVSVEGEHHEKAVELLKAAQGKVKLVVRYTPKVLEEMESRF

HTRA4, P83105 = target: T9, HTRA4, P83105
T9 sequence (P83105 378-476, limits assumed, looked up): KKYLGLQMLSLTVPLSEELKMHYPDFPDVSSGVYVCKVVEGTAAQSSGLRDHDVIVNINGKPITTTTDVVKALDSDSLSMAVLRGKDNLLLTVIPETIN

MAGI2_5, Q86UL8 = target: MAGI2_5, Q86UL8
SNTB1, Q13884 = target: T10, SNTB1, Q13884
T10 sequence (Q13884 107-205, limits assumed, looked up): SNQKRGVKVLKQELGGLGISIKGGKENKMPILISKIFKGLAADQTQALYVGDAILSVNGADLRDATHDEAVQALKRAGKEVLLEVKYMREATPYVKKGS

DLG1_2, Q12959 = target: DLG1_2, Q12959
ARHGEF12, Q9NZN5-2 = target: ARHGEF12, Q9NZN5-2
IL16_1, Q14005 = target: IL16_1, Q14005
Inadl_8, Q8NI35 = target: Inadl_8, Q8NI35
MAST2, Q6P0Q8 = target: MAST2, Q6P0Q8
LIMK2, P53671 = target: LIMK2, P53671
MAGI2_2, Q86UL8 = target: MAGI2_2, Q86UL8
RHPN1, Q8TCX5 = target: T11, RHPN1, Q8TCX5
T11 sequence (Q8TCX5 508-602, limits assumed, looked up): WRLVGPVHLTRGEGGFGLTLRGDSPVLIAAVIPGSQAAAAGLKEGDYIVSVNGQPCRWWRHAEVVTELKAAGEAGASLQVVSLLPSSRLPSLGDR

DLG2_3, Q15700 = target: DLG2_3, Q15700
[1] = plain residues with an end cap or a label only (N-terminal biotin on a linker: ahx)
[2] = plain residues with an end cap or a label only (N-terminal biotin on a linker: gsgsgs; C-terminal amide)

Chain of NHERF4_4, Q86UT5 (Q86UT5 464-550): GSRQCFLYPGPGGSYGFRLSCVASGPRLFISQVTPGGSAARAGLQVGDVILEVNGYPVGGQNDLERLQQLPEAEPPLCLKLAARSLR
Chain of GRIP2_3, Q9C0E4 (Q9C0E4 238-339): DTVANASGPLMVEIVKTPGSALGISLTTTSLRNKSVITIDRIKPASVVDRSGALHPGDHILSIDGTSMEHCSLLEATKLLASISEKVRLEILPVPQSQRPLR
Chain of DLG5_1, Q8TDM6 (Q8TDM6 617-713): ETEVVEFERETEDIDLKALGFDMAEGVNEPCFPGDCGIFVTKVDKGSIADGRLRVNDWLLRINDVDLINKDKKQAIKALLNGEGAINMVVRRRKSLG
Chain of LIMK2, P53671 (P53671 143-248): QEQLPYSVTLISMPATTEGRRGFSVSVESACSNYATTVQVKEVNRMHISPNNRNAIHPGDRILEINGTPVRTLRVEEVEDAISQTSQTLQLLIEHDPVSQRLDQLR
Chain of MAST2, Q6P0Q8 (Q6P0Q8 1099-1202): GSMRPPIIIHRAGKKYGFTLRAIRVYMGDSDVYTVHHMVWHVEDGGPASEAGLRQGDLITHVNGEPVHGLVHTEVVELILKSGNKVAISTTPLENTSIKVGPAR
Chain of IL16_1, Q14005 (Q14005 210-306): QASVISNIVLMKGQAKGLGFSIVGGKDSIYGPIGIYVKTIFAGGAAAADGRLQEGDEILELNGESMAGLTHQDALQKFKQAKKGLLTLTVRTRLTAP
Chain of Inadl_8, Q8NI35 (Q8NI35 1425-1530): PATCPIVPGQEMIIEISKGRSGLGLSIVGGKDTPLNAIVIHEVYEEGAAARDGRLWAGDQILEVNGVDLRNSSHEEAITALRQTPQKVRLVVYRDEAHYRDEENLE
Chain of ARHGEF12, Q9NZN5-2 (Q9NZN5 other isoform, or with tags, fused parts or gaps): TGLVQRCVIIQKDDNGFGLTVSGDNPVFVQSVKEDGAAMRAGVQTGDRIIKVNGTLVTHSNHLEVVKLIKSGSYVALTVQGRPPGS
Chain of MAGI2_2, Q86UL8 (Q86UL8 410-522): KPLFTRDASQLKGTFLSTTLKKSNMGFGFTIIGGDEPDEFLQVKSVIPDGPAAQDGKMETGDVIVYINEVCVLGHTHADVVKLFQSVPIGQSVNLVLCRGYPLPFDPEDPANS
Chain of DLG1_2, Q12959 (Q12959 314-412): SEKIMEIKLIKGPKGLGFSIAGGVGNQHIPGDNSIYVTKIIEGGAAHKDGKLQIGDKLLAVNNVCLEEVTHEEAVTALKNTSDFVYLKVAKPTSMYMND
Chain of TJP2_1, Q9UDY2 (Q9UDY2 24-128): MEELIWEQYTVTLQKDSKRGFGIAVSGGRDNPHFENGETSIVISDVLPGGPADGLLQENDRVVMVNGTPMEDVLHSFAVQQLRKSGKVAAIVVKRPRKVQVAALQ
Chain of Inadl_10, Q8NI35 (Q8NI35 1673-1763): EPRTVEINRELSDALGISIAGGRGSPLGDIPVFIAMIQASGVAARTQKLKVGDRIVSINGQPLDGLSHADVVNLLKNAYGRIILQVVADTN
Chain of MAGI2_5, Q86UL8 (Q86UL8 915-1017): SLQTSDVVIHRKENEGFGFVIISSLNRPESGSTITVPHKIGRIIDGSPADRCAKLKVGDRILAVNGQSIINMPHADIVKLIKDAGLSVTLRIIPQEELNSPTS
Chain of NHERF4_1, Q86UT5-2 (Q86UT5 other isoform, or with tags, fused parts or gaps): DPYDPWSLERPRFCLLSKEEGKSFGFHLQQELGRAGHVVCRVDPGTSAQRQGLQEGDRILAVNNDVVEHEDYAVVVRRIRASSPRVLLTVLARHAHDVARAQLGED

B1: PDLIM4, P50479;P50479-2 (peptide)
chain: PSASCAVTAA
- pKd (TJP2_1, Q9UDY2; [1]): below the threshold
- pKd (NHERF4_4, Q86UT5; [1]): below the threshold
- pKd (SNTG1, Q9NSN8; [1]): below the threshold
- pKd (GRIP1_2, Q9Y3R0; [1]): below the threshold
- pKd (RAPGEF6, Q8TEU7; [1]): below the threshold
- pKd (TX1BP3, O14907; [1]): below the threshold
- pKd (NHERF4_1, Q86UT5-2; [1]): below the threshold
- pKd (SNTA1, Q13424; [1]): below the threshold
- pKd (Inadl_10, Q8NI35; [1]): below the threshold
- pKd (APBA1_1, Q02410; [1]): below the threshold
- pKd (DLG5_1, Q8TDM6; [1]): below the threshold
- pKd (GRIP2_3, Q9C0E4; [1]): below the threshold
- pKd (DVL3, Q92997; [1]): below the threshold
- pKd (LIN7C, Q9NUP9; [1]): below the threshold
- pKd (HTRA4, P83105; [1]): below the threshold
- pKd (MAGI2_5, Q86UL8; [1]): below the threshold
- pKd (SNTB1, Q13884; [1]): below the threshold
- pKd (DLG1_2, Q12959; [1]): below the threshold
- pKd (ARHGEF12, Q9NZN5-2; [1]): below the threshold
- pKd (IL16_1, Q14005; [1]): below the threshold
- pKd (Inadl_8, Q8NI35; [1]): below the threshold
- pKd (MAST2, Q6P0Q8; [1]): below the threshold
- pKd (LIMK2, P53671; [1]): below the threshold
- pKd (MAGI2_2, Q86UL8; [1]): below the threshold
- pKd (RHPN1, Q8TCX5; [1]): below the threshold
- pKd (DLG2_3, Q15700; [1]): below the threshold

B2: DFNB31_int, Q9P202 (peptide)
chain: VSVDDVRSTSQGLSSY
- pKd (TJP2_1, Q9UDY2; [2]): below the threshold
- pKd (NHERF4_4, Q86UT5; [2]): below the threshold
- pKd (SNTG1, Q9NSN8; [2]): below the threshold
- pKd (GRIP1_2, Q9Y3R0; [2]): below the threshold
- pKd (RAPGEF6, Q8TEU7; [2]): below the threshold
- pKd (TX1BP3, O14907; [2]): below the threshold
- pKd (NHERF4_1, Q86UT5-2; [2]): below the threshold
- pKd (SNTA1, Q13424; [2]): below the threshold
- pKd (Inadl_10, Q8NI35; [2]): below the threshold
- pKd (APBA1_1, Q02410; [2]): below the threshold
- pKd (DLG5_1, Q8TDM6; [2]): below the threshold
- pKd (GRIP2_3, Q9C0E4; [2]): below the threshold
- pKd (DVL3, Q92997; [2]): below the threshold
- pKd (LIN7C, Q9NUP9; [2]): 4.12
- pKd (HTRA4, P83105; [2]): below the threshold
- pKd (MAGI2_5, Q86UL8; [2]): below the threshold
- pKd (SNTB1, Q13884; [2]): below the threshold
- pKd (DLG1_2, Q12959; [2]): below the threshold
- pKd (ARHGEF12, Q9NZN5-2; [2]): below the threshold
- pKd (IL16_1, Q14005; [2]): below the threshold
- pKd (Inadl_8, Q8NI35; [2]): below the threshold
- pKd (MAST2, Q6P0Q8; [2]): below the threshold
- pKd (LIMK2, P53671; [2]): below the threshold
- pKd (MAGI2_2, Q86UL8; [2]): below the threshold
- pKd (RHPN1, Q8TCX5; [2]): below the threshold
- pKd (DLG2_3, Q15700; [2]): 3.55
